Source: article PMC5741103

Key:
SLMAP [1] = molecular target: SLMAP (UniProt Q14BN4); assay: co-IP, FLAG-MST2 and V5-SLMAP; settings: reference: wild type MST2; sites T325,T336,T378
SLMAP [2] = molecular target: SLMAP (UniProt Q14BN4); assay: co-IP, MST2 variants and V5-SLMAP

| binding against the reference (SLMAP [1]) | binding against the reference (SLMAP [2]; reference: MST2-6A/325T, sites T325) | binding against the reference (SLMAP [2]; reference: MST2-6A/336T, sites T336) | binding against the reference (SLMAP [2]; reference: MST2-6A/378T, sites T378) | Substance |
| --- | --- | --- | --- | --- |
| lost |  |  |  | MST2 (from UniProt Q13188) MST2-3A |
|  | lost | lost | lost | MST2 (from UniProt Q13188) MST2-7A |
